Reference: publication PMC12373997
pKd: −log10 of the molar value.

target: Taxol-stabilized microtubules polymerised from purified porcine brain tubulin (porcine) (UniProt P02550); test: co-sedimentation; tubulin co-sedimentation: taxol-stabilized MTs (varied, α/β-tubulin heterodimer molarity) with 1 µM purified N-clamp, 0.25 mg/ml BSA, BRB80-MT buffer (80 mM PIPES, 1 mM MgCl2, 1 mM EGTA, 12.5% glycerol, pH 6.8), 20 min at room temperature, 200,000 g 10 min 27 °C; SDS-PAGE densitometry of pellet; apparent Kd from a quadratic fit

Sequence of X. laevis augmin N-clamp with HAUS8 lacking its N-terminal extension (Q0IHJ3 whole entry, looked up, one chain of several): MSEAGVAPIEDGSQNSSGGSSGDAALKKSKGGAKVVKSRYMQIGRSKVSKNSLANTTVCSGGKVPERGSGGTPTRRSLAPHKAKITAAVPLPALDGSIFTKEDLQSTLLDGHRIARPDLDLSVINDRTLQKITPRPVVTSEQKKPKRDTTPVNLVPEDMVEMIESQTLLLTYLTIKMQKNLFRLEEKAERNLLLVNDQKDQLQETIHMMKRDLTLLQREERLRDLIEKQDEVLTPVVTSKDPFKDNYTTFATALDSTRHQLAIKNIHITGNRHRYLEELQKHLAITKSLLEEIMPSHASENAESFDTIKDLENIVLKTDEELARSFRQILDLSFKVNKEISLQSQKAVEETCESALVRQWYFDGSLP
Sequence of X. laevis augmin N-clamp, wild type (HAUS2, HAUS6, HAUS7-EGFP-HIS8, HAUS8-HIS8) (Q0IHJ3 whole entry, looked up, one chain of several): as above
Sequence of A. thaliana augmin N-clamp with AUG8 lacking its N-terminal extension (O48767 whole entry): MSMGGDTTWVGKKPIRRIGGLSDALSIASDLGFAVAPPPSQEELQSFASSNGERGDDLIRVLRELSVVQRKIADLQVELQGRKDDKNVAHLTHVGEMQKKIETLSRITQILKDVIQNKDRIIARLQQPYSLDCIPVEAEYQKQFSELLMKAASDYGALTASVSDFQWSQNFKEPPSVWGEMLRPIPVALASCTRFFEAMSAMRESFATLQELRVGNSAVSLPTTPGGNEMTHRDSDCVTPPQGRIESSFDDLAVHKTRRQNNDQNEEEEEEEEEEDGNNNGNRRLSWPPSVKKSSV
Sequence of A. thaliana augmin N-clamp with AUG8 lacking its N-terminal extension (Q94BP7 whole entry): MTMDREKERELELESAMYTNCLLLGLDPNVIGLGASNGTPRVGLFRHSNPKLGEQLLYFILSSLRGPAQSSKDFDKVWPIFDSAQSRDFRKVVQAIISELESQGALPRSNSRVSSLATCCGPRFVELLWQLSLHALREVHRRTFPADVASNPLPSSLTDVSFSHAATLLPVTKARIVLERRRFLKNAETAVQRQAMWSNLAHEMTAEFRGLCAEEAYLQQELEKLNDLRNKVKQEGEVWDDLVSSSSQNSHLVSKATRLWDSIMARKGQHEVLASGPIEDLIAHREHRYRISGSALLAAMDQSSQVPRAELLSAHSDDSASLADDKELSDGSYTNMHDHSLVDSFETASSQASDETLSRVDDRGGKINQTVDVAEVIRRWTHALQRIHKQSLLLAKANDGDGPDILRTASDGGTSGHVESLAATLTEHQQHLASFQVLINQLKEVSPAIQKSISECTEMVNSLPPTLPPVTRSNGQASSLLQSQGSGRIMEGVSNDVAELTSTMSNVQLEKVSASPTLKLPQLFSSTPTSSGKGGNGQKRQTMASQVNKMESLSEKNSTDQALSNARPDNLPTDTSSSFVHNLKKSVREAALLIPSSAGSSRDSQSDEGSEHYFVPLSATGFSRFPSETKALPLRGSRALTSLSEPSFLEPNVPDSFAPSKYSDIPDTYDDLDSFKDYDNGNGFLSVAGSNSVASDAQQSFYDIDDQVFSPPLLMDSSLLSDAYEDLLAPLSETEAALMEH
Sequence of A. thaliana augmin N-clamp with AUG8 lacking its N-terminal extension (Q0WTP1 whole entry): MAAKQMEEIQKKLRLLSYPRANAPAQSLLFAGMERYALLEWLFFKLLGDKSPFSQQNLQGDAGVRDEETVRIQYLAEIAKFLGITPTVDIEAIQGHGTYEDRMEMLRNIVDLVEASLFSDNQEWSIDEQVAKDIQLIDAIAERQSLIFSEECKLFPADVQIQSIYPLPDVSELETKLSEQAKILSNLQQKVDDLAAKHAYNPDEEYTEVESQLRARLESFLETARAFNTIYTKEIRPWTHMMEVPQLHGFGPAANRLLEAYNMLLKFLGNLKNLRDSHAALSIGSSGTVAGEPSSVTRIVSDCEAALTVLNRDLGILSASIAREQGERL
Sequence of A. thaliana augmin N-clamp with AUG8 lacking its N-terminal extension (Q9SUH5 whole entry): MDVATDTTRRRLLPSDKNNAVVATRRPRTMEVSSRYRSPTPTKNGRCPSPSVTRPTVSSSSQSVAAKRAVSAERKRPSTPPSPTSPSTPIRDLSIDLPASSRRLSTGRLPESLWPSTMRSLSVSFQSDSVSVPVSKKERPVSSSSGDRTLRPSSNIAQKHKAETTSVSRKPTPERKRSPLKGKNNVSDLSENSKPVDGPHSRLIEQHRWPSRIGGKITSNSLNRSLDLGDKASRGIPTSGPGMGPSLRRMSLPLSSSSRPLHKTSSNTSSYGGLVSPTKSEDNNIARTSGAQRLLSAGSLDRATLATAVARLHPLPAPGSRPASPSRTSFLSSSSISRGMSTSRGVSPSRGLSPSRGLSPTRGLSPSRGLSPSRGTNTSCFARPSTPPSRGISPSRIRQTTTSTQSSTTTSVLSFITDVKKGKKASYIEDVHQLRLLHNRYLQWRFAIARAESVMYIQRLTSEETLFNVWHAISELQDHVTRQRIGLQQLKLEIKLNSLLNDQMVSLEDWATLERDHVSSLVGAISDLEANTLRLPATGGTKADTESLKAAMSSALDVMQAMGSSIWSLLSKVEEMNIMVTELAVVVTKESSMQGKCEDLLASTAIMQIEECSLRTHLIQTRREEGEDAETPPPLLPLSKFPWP

| Substance | pKd |
| --- | --- |
| A. thaliana augmin N-clamp with AUG8 lacking its N-terminal extension (from UniProt O48767 1-296; Q94BP7 1-741; Q0WTP1 1-329; Q9SUH5 1-644) (complex) | 5.68 |
| X. laevis augmin N-clamp, wild type (HAUS2, HAUS6, HAUS7-EGFP-HIS8, HAUS8-HIS8) (from UniProt Q0IHJ3 1-367; Q0IHJ3 1-367; Q0IHJ3 1-367) (complex) | 6.22 |
| X. laevis augmin N-clamp with HAUS8 lacking its N-terminal extension (from UniProt Q0IHJ3 1-367; Q0IHJ3 1-367; Q0IHJ3 1-367) (complex) | 5.66 |
| H. sapiens augmin N-clamp, wild type (HAUS2, HAUS6, HAUS7-EGFP-HIS8, HAUS8-HIS8) (from UniProt Q9NVX0 1-235; Q7Z4H7 1-955; Q99871 1-358; Q9BT25 1-410) (complex) | 6.10 |
| H. sapiens augmin N-clamp with HAUS6^4A-mut (K84A, R90A, K91A, K98A) (from UniProt Q9NVX0 1-235; Q7Z4H7 1-955; Q99871 1-358; Q9BT25 1-410) (complex) | 5.25 |
| GST-tagged D. melanogaster augmin N-clamp (Msd1, Dgt6, Msd5-EGFP-GST, Dgt4-HIS8) (from UniProt Q9W0G7 1-138; Q9VAP2 1-654; Q9W4M8 1-188) (complex) | 7.40 |
| A. thaliana augmin N-clamp, wild type (orthologs of HAUS2, HAUS6, HAUS7-EGFP-HIS8, HAUS8-HIS8) (from UniProt O48767 1-296; Q94BP7 1-741; Q0WTP1 1-329; Q9SUH5 1-644) (complex) | 8.00 |
